# Literature values, collected in PMC3288267.
# Assays:
# [1] = target: transferrin receptor 1 (TfR), immobilised on SPR chip (UniProt P02786); test: Surface plasmon resonance, kinetic; details: pH endosomal pH (numeric value not given)
# [2] = target: transferrin receptor 1 (TfR), immobilised on SPR chip (UniProt P02786); test: Surface plasmon resonance, equilibrium binding; details: pH endosomal pH (numeric value not given)
# UniProt P02786, sequence (P02786 whole entry): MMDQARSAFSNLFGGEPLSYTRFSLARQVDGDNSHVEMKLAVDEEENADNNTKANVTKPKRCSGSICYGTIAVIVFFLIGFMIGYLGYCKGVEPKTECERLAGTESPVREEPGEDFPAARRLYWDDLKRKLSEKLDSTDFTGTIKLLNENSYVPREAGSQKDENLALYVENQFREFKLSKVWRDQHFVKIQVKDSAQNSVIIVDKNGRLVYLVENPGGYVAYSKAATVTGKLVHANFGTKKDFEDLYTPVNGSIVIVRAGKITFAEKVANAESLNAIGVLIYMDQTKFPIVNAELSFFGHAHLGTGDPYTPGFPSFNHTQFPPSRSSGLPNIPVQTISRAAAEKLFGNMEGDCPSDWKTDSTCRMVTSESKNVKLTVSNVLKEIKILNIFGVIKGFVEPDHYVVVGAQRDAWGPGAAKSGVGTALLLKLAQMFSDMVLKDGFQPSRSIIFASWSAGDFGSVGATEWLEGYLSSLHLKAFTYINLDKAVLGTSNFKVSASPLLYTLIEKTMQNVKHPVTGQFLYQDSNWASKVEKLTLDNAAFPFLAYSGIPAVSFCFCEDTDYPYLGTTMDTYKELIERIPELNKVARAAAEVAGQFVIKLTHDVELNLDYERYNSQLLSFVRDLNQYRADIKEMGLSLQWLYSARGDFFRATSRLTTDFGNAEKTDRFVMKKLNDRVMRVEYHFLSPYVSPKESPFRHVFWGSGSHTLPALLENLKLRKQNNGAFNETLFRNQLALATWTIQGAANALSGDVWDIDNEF
substance,measurement,setting,value
"apo-transferrin (iron-free), SPR analyte","KD (from kd,end/ka,end)",[1],1.3 nM
same,"ka,end (association rate constant; kend,a in Table 1)",[1],4.4 ± 0.4 × 10^7 min^−1 M^−1
same,"kd,end (dissociation rate constant; kend,d in Table 1)",[1],0.000933 ± 0.0002 s⁻¹
same,KD (equilibrium SPR),[2],<15 nM
